These are literature values, as cited in publication PMC6201748.

The target of this data set is ZipA (Escherichia coli) (UniProt P77173). Description: SPR.

FtsZ, sequence (P0A9A6 whole entry): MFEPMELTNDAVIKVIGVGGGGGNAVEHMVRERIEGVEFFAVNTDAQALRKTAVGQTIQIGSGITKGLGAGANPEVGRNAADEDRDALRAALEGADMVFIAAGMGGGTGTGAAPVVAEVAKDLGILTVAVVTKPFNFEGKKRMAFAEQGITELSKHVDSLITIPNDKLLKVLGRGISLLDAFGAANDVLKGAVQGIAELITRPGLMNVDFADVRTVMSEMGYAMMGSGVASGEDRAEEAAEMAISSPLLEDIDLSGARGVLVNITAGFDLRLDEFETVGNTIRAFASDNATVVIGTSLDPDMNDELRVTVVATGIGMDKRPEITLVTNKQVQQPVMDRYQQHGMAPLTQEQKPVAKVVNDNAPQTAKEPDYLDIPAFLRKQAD

In the case of FtsZ (from UniProt P0A9A6), the Kd is 7 µM.
